The text below walks through data of patent publication US8846623B2, “Cancer-targeting peptides and uses thereof in cancer treatment and diagnosis” (Academia Sinica, priority 2010, dated 2014).

Square brackets hold non-standard residues; d marks the D form. Ends that are not written are not given here. Peptide text beside a SMILES is read from it.

One test concerns the target GRP78 (Homo sapiens, UniProt P11021). Description: Dissociation constant of L-peptide binding to GRP78. The settings on record: dose-dependent binding to GRP78.
The target in test [1] is full-length recombinant GRP78 (Homo sapiens, UniProt P11021). As to the kind of experiment: Biacore binding assay of peptides. The settings on record: for Binding index: peptide at 50 μM, difference of RUs divided by molecular weight, normalized to the L-peptide; for Binding to GRP78 compared to the L-peptide: Biacore; for Binding to GRP78 compared to the L-peptide / binding responses in Biacore: in words. The procedure:
26 candidate peptides designed by the method described in Example 1 (listed in Table 6 below) above and peptide CdL, a negative control, were synthesized by conventional chemical synthesis and subjected to the surface-plasmon-resonance based method described below to examine the binding activities of the peptides to human GRP78.
The chip NTA and HBS-P buffer were obtained from GE Healthcare. Sensor chip NTA was prepared by combining Ni-ion chelation and covalent immobilization of N-His tagged GRP78 via amine-coupling with nitrilotriacetic acid on chip NTA (FIG. 6). To immobilize GRP78 protein on sensor chip for peptide-binding assay using Biacore, the methods based on Ni-ion chelation and amine coupling reaction were combined. Sensor chip NTA was prepared by chelation followed by covalent immobilization of N-His-tagged GRP78 via amine-coupling at the nitrilotriacetic acid group on chip NTA. The sensor chip NTA, HBS-P buffer and amine coupling kits were all obtained from GE Healthcare. First, the activation of chip surface using EDC and NHS reagents for amine coupling were according to the standard procedure from manufacturer's instruction. Additionally, one-minute pulse of NiCl2 solution (500 μM) was used to attract His-tagged GRP78 to the surface of sensor chip and formed covalent bond subsequently in the condition of HBS-P buffer (pH 7.4). The resulting differences of RU were about 5,000-6,000 RU. After de-activation by ethanolamine and washed with EDTA (3 mM), the prepared sensor chip was then applied to Biacore X for binding assay. The HBS-P buffer containing 1 mM Gly was used as running buffer for binding assay. Solution of 20 mM sodium hydroxide dissolved in running buffer was used to regenerate the chip surface by one-minute pulse.
The sensor chip thus prepared was applied to Biacore X for determining the binding between the peptides and GRP78. The HBS-P buffer containing 1 mM Gly was used as a running buffer. A solution of 20 mM sodium hydroxide dissolved in the running buffer was used to regenerate chip surface by 1-minute pulses.
The binding of various peptides to GRP78 is also shown as a binding index in Table 6. The binding index represents the difference of resonance units (RUs) divided by the molecular weight of each peptide and was normalized by comparison to the L-peptide.
In general terms: In SPR one partner is held on a chip, and binding of the other changes the refractive index at the surface.

A further test concerns MDA-MB-231 cells. Description: Flow cytometry binding of FITC-labeled peptide, MDA-MB-231. Conditions: Breast. The test is classed as cell-based. The procedure:
(§1) Cells were grown to 80% confluence and harvested with 5 mmol/L EDTA in PBS. Breast cancer specimens were obtained from patients who underwent initial surgery at Tri-Service General Hospital (Taipei, Taiwan). The clinical breast cancer specimens were sliced to fragments of 1 mm2 in size and subjected to enzymatic digestion by collagenase (1,000 U/mL), hyaluronidase (300 U/mL), and DNase I (100 μg/mL) at 37° C. for 2 hours. Primary breast tumor cells were collected after filtration through a 100 μm cell strainer (BD Biosciences) and re-suspended. For transplantation, tumor cells mixed with normal human breast fibroblasts and Matrigel were subcutaneously injected into mammary fat pads of female NOD/SCID mice received a sub-lethal dose of gamma irradiation in advance. After transplantation, cells of xenografted tumors were isolated and inoculated in NOD/SCID mice for serial passages. The cancer cell lines, xenograft cells, and primary breast tumor cells were re-suspended in a FACS buffer (PBS with 2% fetal bovine serum) and incubated at room temperature for 30 min with FITC-conjugated various peptides. To determine breast cancer stem cell (BCSCs) and non-breast cancer stem cell (non-BCSC) populations from xenografts, the cells were stained with a mixture of anti-H2Kd-biotin followed by streptavidin-PER-CP, anti-CD24-PE, anti-CD44-APC and FITC-conjugated various peptides. The primary breast tumor cells were stained with anti-CD45-PerCP-Cy5.5 antibodies, instead of H2Kd staining. The stained cells were then subjected to FACS analysis.
In general terms: Flow cytometry measures light scatter and fluorescence of single cells or particles in a stream.

The subject of test [2] is human primary breast cancer BC0145 and BC0244 engrafted in NOD/SCID mice. As to the kind of experiment: Flow cytometry binding of FITC-labeled peptides to xenograft cells (BCSC-enriched and non-BCSC). The test is classed as cell-based. Conditions: for Binding capacities in vitro compared with L-peptide: both BCSCs and non-BCSCs. The procedure: To evaluate the in vitro binding abilities of cancer-targeting peptides described herein, the FITC-labeled L-peptide, P-6, P-12, P-13, and P-16 were tested for their binding activities to cancer cells, primary breast cancer engrafted in NOD/SCID mice, and clinical breast cancer specimens by a flow cytometric analysis as described below.
as §1
The binding capacities of the L-peptide and the P-6, P-12, P-13, and P-16 peptides to two xenograft samples from NOD-SCID mice transplanted with human primary breast cancer cell lines BC0145 and BC0244 were evaluated with special focus on their binding to the BCSC subpopulation enriched from the breast cancer cells. Breast cancer cells harvested from engrafted tumors were stained with H2Kd to gate out mouse cells, and stained with anti-CD24 and anti-CD44 antibodies to distinguish BCSC-enriched cells (CD24^−CD44^+) from non-BCSC cells. These cells were co-stained with one of the above-noted peptides, which was FITC-labeled and subjected to flow cytometric analysis. […] The binding abilities of these peptides to clinical breast specimens were similar to those to xenograft samples. […] FIG. 7, panel d.

For another test, the system named is TW01 cells. As to the kind of experiment: Flow cytometry binding of FITC-labeled peptide, TW01. The settings on record: Nasopharyngeal. The test is classed as cell-based. The procedure:
as §1

full-length recombinant GRP78, sequence (P11021 19-654): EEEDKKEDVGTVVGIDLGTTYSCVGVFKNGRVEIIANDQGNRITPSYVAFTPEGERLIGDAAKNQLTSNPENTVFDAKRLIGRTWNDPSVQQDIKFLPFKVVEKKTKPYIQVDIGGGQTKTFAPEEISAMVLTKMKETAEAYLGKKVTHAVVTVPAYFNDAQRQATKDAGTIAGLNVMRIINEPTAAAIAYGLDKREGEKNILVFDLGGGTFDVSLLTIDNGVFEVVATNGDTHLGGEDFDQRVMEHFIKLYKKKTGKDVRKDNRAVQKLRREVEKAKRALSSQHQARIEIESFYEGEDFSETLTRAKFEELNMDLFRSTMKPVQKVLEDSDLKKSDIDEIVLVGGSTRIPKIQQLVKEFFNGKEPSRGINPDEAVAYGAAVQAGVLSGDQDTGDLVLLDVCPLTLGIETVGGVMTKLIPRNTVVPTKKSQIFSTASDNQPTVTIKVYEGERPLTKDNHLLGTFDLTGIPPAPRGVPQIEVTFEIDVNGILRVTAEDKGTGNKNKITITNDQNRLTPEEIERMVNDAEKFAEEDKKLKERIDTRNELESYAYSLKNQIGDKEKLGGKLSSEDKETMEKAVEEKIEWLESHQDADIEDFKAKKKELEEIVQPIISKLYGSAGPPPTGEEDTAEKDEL
GRP78, sequence (P11021 19-654): as above

By Kd is commonly meant the concentration at which binding is half-saturated. Higher therefore signals weaker binding. Turning to `CC(C)C[C@H](NC(=O)[C@H](CC(C)C)NC(=O)[C@@H](N)CCCNC(=N)N)C(=O)N[C@@H](CC(=O)O)C(=O)N[C@H](C(=O)N[C@@H](CC(N)=O)C(=O)N[C@@H](CCCNC(=N)N)C(=O)N1CCC[C@H]1C(=O)N[C@@H](CC(C)C)C(=O)N[C@@H](CC(C)C)C(=O)N1CCC[C@H]1C(=O)N[C@@H](Cc1ccc(O)cc1)C(=O)O)[C@@H](C)O` [L-peptide] (H-RLLDTNRPLLPY-OH), the Kd on GRP78 was 1 to 10 µM.

For the molecule RLLDTNRPDLPY [PA-3], the Binding index in test [1] was less than 0.2.

On to RLLDTNRPELPY [PA-2], for which, in test [1], the Binding index is less than 0.2.

As to RLLDTNRPFLFY [P-13], in test [1], the “Binding to GRP78 compared to the L-peptide” value is recorded as “bound to GRP78 better than the L-peptide”, the “binding responses in Biacore” value is listed as “significant binding responses” and the Binding index is given as 1.4~3.5. In addition, the Binding ability result with MDA-MB-231 cells is listed as “bound”. Moreover, the “Staining strength (order of binding)” value in test [2] (FITC-labeled peptides, BCSC-enriched and non-BCSC cells of BC0145 and BC0244 xenografts) was “stained most strongly”. Also, in test [2] (FITC-labeled peptides), the “Binding capacities in vitro compared with L-peptide” value is recorded as “greater binding capacities in vitro than L-peptide”. Moreover, the Binding ability result in the test with TW01 cells is “bound”.

Take RLLDTNRPFLKY [P-10]: the Binding index in test [1] is less than 0.2.

For the molecule RLLDTNRPFLPY [P-6], in test [1], the “Binding to GRP78 compared to the L-peptide” value is “bound to GRP78 better than the L-peptide”, the “binding responses in Biacore” value is reported as “significant binding responses” and the Binding index is reported as 1.1~1.52. For the same molecule, the Binding ability result in the test on MDA-MB-231 cells was “bound”. Also, the “binding capacity to BCSC-enriched cells” value in test [2] (FITC-labeled peptide, BCSC-enriched cells isolated from the BC0145 xenograft) is on record as “equivalent to P-12”. For the same molecule, in test [2] (FITC-labeled peptides), the “Binding capacities in vitro compared with L-peptide” value is listed as “greater binding capacities in vitro than L-peptide”. Moreover, in the test with TW01 cells, the Binding ability result is reported as “bound”.

On to RLLDTNRPFLWY [PB-1], for which, in test [1], the “binding responses in Biacore” value is “significant binding responses” and the Binding index is on record as 1.6.

For RLLDTNRPHLKY [P-15], the Binding index in test [1] is reported as less than 0.2.

Consider RLLDTNRPHLPY [PA-6], for which the Binding index in test [1] was 0.47.

Turning to RLLDTNRPHLWY [P-12], in test [1], the “Binding to GRP78 compared to the L-peptide” value is recorded as “bound to GRP78 better than the L-peptide”, the “binding responses in Biacore” value is reported as “significant binding responses” and the Binding index is listed as 1.2~3.5. Also, the Binding ability result with MDA-MB-231 cells is “bound”. In addition, in test [2] (FITC-labeled peptides), the “Binding capacities in vitro compared with L-peptide” value is on record as “greater binding capacities in vitro than L-peptide”. Further, in the test on TW01 cells, the Binding ability entry is “bound”.

For RLLDTNRPKLFY [P-4], the Binding index in test [1] is less than 0.2.

For RLLDTNRPKLRY [P-16], in test [1], the Binding index is less than 0.2.

Consider RLLDTNRPKLVY [P-2], for which, in test [1], the Binding index is on record as less than 0.2.

For “RLLDTNRPL(d-L)PY (RLLDTNRPL[dL]PY) [CdL, negative control peptide, reference compound]”, the Binding index in test [1] is on record as less than 0.2.

For the molecule RLLDTNRPLLGY [P-11], in test [1], the Binding index is listed as 0.77.

With RLLDTNRPLLLY [P-14], in test [1], the Binding index was determined as 0.21.

Regarding “RLLDTNRPLLPY(CONH2) (RLLDTNRPLLPY-NH2) [PB-3, L-peptide modified with the amidation (CONH2)]”, in test [1], the “Binding to GRP78 compared to the L-peptide” value was “did not significantly affect the binding affinity”, the “binding responses in Biacore” value is “significant binding responses” and the Binding index turned out to be 1.15.

With RLLDTNRPMLKY [P-8], the Binding index in test [1] is on record as less than 0.2.

Take RLLDTNRPMLMY [P-5]: the Binding index in test [1] is listed as less than 0.2.

Consider RLLDTNRPNLPY [PA-4], for which the Binding index in test [1] turned out to be 0.31.

Turning to RLLDTNRPPLCY [P-9], the Binding index in test [1] was less than 0.2.

As to RLLDTNRPQLPY [PA-5], in test [1], the Binding index is given as 0.3.

For RLLDTNRPQLVY [P-3], the Binding index in test [1] was less than 0.2.

For RLLDTNRPRLEY [P-17], the Binding index in test [1] is less than 0.2.

Consider RLLDTNRPSLFY [P-7], for which the Binding index in test [1] is recorded as less than 0.2.

RLLDTNRPWLPY [PA-1]: in test [1], the “Binding to GRP78 compared to the L-peptide” value is recorded as “significantly decreased the binding” and the Binding index stood at 0.35.

For RLLDTNRPYLKY [P-1], the Binding index in test [1] is on record as less than 0.2.

RLLDTNRPYLWY [PB-2]: in test [1], the “binding responses in Biacore” value was “significant binding responses” and the Binding index stood at 3.
